Experiment [1] concerns the target T1, human interleukin-2 receptor β-chain (IL-2Rβ; CD122), recombinant protein (human, UniProt P14784 27-240).
T1 construct: also called human IL-2R subunit CD122
T1 sequence: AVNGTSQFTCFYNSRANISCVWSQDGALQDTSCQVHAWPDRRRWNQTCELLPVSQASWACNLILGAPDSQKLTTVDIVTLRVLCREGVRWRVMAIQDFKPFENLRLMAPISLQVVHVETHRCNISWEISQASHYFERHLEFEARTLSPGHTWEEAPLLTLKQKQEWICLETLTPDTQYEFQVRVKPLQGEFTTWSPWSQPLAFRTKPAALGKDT
The experiment can be described thus: ELISA, bivalent VHH-hFc. How it is done:
(§1) Monospecific monovalent and bivalent IL-2Rα-, IL-2Rβ- and IL-2Rγ-specific antibodies that were selected on human IL-2R subunits, were evaluated for their cross-reactivity in an ELISA. Human and cynomolgus monkey receptor subunits (Acrobiosystems, KactusBiosystems) were coated at 1 μg/mL in PBS (pH 7.4) in a Maxisorp plate (Nunc) and incubated overnight at 4° C. The plates were further washed with PBS-Tween pH 7.4 and incubated with 1% cascin/PBS-Tween blocking solution for 1 hour shaking at 400 rpm. Subsequently, the plate was washed three times with PBS-Tween pH 7.4, after which the test antibodies diluted in 0.1% casein/PBS-Tween were added to the plate and incubated for 1 hour. The plate was again washed three times, after which goat anti-human IgG Fc (HRP) detection antibody (abcam) was added to the plate and incubated for 30 min. The colouring reaction was performed with TMB (Sigma-Aldrich) and stopped with 0.5N H₂SO₄.
(§2) Absorbance was measured at 450 nm with the reference wavelength of 620 nm using spectrophotometer. Final analysis and graphic output were performed with GraphPad Prism version 8 (GraphPad Software). The dose-response binding curves were fit to a nonlinear regression model (log (agonist) vs. response with a variable slope (four parameters)).
(In an ELISA, binding on a coated surface is turned into a signal by an enzyme label.)

In experiment [2] the target is T2, cynomolgus monkey IL-2Rβ/CD122 subunit (cynomolgus monkey, UniProt Q38J85 27-239, limits assumed).
T2 construct: also called Cyno IL-2R subunit
T2 sequence (looked up): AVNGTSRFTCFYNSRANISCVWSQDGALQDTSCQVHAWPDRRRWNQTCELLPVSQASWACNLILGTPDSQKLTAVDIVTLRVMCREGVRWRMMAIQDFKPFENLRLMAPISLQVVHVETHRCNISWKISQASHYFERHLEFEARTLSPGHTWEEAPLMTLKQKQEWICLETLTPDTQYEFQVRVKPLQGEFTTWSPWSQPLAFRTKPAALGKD
The experiment can be described thus: ELISA, bivalent VHH-hFc. The protocol:
as §1, §2

In experiment [3] the target is T2, cynomolgus monkey IL-2Rβ/CD122 subunit. Put plainly: ELISA, bivalent; EC50 cyno vs human subunit. How it is done: as §1, §2

B1: 18-MP03C03 VHH-hFc, monospecific bivalent (Fc fusion)
chain: QVQLVESGGGLVQPGGSLRLSCAISGGTLDSYGIGWVRQAPGKQREGVSCMSRSDDRTYYADSVKGRFTISKDSAKNTVYLQMTSLKPEDTAVYYCAAVDAYGCSLVQPTTYDFWGLGTQVTVSS
notes: IgG1 Fc LALA-PG; not shown: human IgG1 CH2 and CH3 domains (Fc)
In general, EC50 refers to the concentration giving half of the maximal effect. With B1, the EC50 in experiment [1] came out at 0.294 nM; in experiment [2] it was 0.3 nM. Besides, in experiment [3], the Fold change turned out to be 1 fold.

B2: 126-MP02A03 VHH-hFc, monospecific bivalent (Fc fusion)
chain: QVQLVESGGGLVQPGGSLRLSCAASGFTFSNYAMSWVRQAPGKGLEWVSSITGAGRGTYYAESVKGRFTISRDNDKNTLYLQMNSLKPEDTAVYYCAKYDSSTFYPPTPARGIADRGQGTRVTVSS
notes: as for B1
On to B2, for which the EC50 in experiment [1] is 0.09 nM; in experiment [2], 0.065 nM. In experiment [3], this molecule came in with a Fold change of 0.7 fold.

B3: 20-MP03F10 VHH-hFc, monospecific bivalent (Fc fusion)
chain: EVQLVESGGGLVQAGGSLRLSCAASGRDFSSYAMGWFRQAPGKEREFVVAITWTKRSTDFPDSVKGRFTISRDNAKNTVYLDMNSLKPEDTAVYYCASARGLPVTPLGDIIYWGEGTLVTVSS
notes: as for B1
As for B3, the EC50 in experiment [1] was determined as 0.218 nM. Also, the binding result in experiment [2] is on record as “no binding”.

B4: 24-MP06E05 VHH-hFc, monospecific bivalent (Fc fusion)
chain: QVQLVESGGELVQGGASLRLSCAASGRTFSNANMAWFRQAPEKEREFVALITWSSGSTLYADSVKGRFTISRDNARKMVYLQMNSLKPEDTAVYYCAADGPPYSGTYYRYDTYDYWGQGTQVTVSS
notes: as for B1
In the case of B4, the EC50 in experiment [1] was found to be 0.191 nM; in experiment [2], 0.265 nM. This molecule also gave a Fold change in experiment [3] of 1.4 fold.

B5: 22-MP03F12 VHH-hFc, monospecific bivalent (Fc fusion)
chain: EVQLVESGGGLVQAGGSLRLSCAASGSIFSINAMAWFRQVPGMERELVAAISRDGGASVYRDSVKGRFTISRDNSKNTVYLQMNTLKPEDTAIYVCAATRAIGWTARWITTDFDFWGQGTQVTVSS
notes: as for B1
Turning to B5, the figures for the EC50 in experiment [1] and in experiment [2] were 0.124 nM and 0.122 nM, respectively. The same molecule showed a Fold change in experiment [3] of 1 fold.

B6: 19-MP03F08 VHH-hFc, monospecific bivalent (Fc fusion)
chain: EVQLVESGGGLVQTGGSLRLSCAASGGTFSRDAMAWFRQVPGKEREFVALISWSGATTNYADSVKGRFAISRDNGKNTVYLQMNRLKPADTAIYYCAADRRPMGSRSYFEPTEYDDWGQGTQVTVSS
notes: as for B1
For the molecule B6, the half-maximal effective concentration (EC50) in experiment [1] stood at 0.794 nM; in experiment [2], 0.603 nM. In experiment [3], this molecule gave a Fold change of 0.8 fold.

B7: 193-MP02F12 VHH-hFc, monospecific bivalent (Fc fusion)
chain: QLQLVESGGGLVQTGTSLRLSCAASGHTSRINAMGWFRQFPGKEREFVAAISRNGGSTVYVDSVKGRFTISRDNAKSTVYLQMNSLKPEDTAVYYCTATDAVGWTTRWMTADFGFWGQGTQVTVSS
notes: as for B1
Take B7: the figures for the EC50 in experiment [1] and in experiment [2] were 0.087 nM and 0.099 nM, respectively. This molecule displayed a Fold change in experiment [3] of 1.1 fold.

B8: 166-MP02H08 VHH-hFc, monospecific bivalent (Fc fusion)
chain: EVQLVESGGGLVQAGDSLRISCAASGRIFSNYAMGWFRQAPGKETEFVAGITHLTSTTHYADSVKGRFTISRDNAKNTMHLQMNNLKPEDTALYYCAADRNIKITADWSYWGQGTQVTVAS
notes: as for B1
B8: the EC50 in experiment [1] is 0.085 nM; in experiment [2], 0.105 nM. The Fold change in experiment [3] stood at 1.2 fold.

B9: 168-MP02B09 VHH-hFc, monospecific bivalent (Fc fusion)
chain: EVQLVESGGGLVQAGGSLRLSCAASGRTFSTTEMGWFRQAPGKEREFVAAITWTGRGTMYAESVEGRFTISRENAKNMVYLQMNSLKPEDTAIYYCAAARRGRAAVRSEGGYDFWGQGTQVTVSS
notes: as for B1
On to B9, for which the figures for the EC50 in experiment [1] and in experiment [2] were 0.053 nM and 0.127 nM, respectively. Moreover, the Fold change in experiment [3] turned out to be 2.4 fold.

B10: 115-MP02E01 VHH-hFc, monospecific bivalent (Fc fusion)
chain: EVQLVESGGGLVQIGGSLRLSCAASGRTFSSITMAYFRQVPGKEREWVAGINFSGTRTFYADSVKGRFLISRDDAKSTMYLQMNSLKPEDTAVYYCAASPRGFYGPGNALYDYWGQGTQVTVSS
notes: as for B1
In the case of B10, the EC50 in experiment [1] and in experiment [2] was 0.06 nM in each case. In addition, the Fold change in experiment [3] was 1 fold.

B11: 189-MP02B12 VHH-hFc, monospecific bivalent (Fc fusion)
chain: QVQLVESGGGLVQAGGSLRLSCAASGRADSNAIMAWFRQAPGKEREFIVAVTYSGMPTYQDDSVQGRFTASRDNAKNTVYLQMNSLKPEDTAVYYCAARMYSASTYYGDYDYWGQGTQVTVSS
notes: as for B1
As to B11, the EC50 is 0.053 nM in experiment [1] and 0.066 nM in experiment [2]. The same molecule registered a Fold change in experiment [3] of 1.3 fold.

B12: 15-MP02E06 VHH-hFc, monospecific bivalent (Fc fusion)
chain: QVQLVESGGGSVQPGGSLRLSCAASGFTFSNYAMSWVRQAPGKGLEWVASITGFGRGTDYADSVKGRFTISRDNAEDTLYLQMNSLKPEDTAVYYCAKYSSSTYYPPTPARGRDYRGQGTQVTVSS
notes: IgG1 Fc LALA-PG; also called anti-IL-2Rβ Ab 15; not shown: human IgG1 CH2 and CH3 domains (Fc)
B12: the EC50 was 0.209 nM in experiment [1] and 0.895 nM in experiment [2]. The Fold change in experiment [3] is 4.3 fold.

B13: 161-MP02C08 VHH-hFc, monospecific bivalent (Fc fusion)
chain: EVQLVESGGGLVQAGGSLRLSCAASGSTFSRQPMYWFRQAPGKEREFVAAITWSGRGTLYADSVEGRFTISRDNAKNTVYLQMNSLRPDDTAAYYCAAGPYGDAAYRHGRIDSWGQGTQVTVSS
notes: as for B1
With B13, the EC50 is 0.084 nM in experiment [1] and 0.157 nM in experiment [2]. In experiment [3], this molecule returned a Fold change of 1.9 fold.

B14: 16-MP02B08 VHH-hFc, monospecific bivalent (Fc fusion)
chain: EVQLVESGGGLVQAGGSLRLSCAASGRAIENYPVGWFRQAPGKEREFVAAITWISGSTLYADSVKGRFTISRDNAKNTVYLQMSSLKPEDTALYYCAAALKTITRGQNDYSYWGQGTQVTVSS
notes: as for B1
For B14, the EC50 in experiment [1] was 0.245 nM; in experiment [2], 0.23 nM. In experiment [3], this molecule displayed a Fold change of 0.9 fold.

B15: 297-MP06A08 VHH-hFc, monospecific bivalent (Fc fusion)
chain: EVQLVESGGGLVQAGESLRLSCAASGQYFSTYSMAWFRRTPGKEREFVTIISESGGIKEYVDSVKGRFTVSRDNAKNTVYLQMNSLKPEDTAVYYCAAARDWFARNEYQYDYWGQGTQVTVSS
notes: as for B1
For the molecule B15, the EC50 in experiment [1] came out at 0.079 nM; in experiment [2], 0.09 nM. The same molecule registered a Fold change in experiment [3] of 1.2 fold.

B16: 184-MP02E11 VHH-hFc, monospecific bivalent (Fc fusion)
chain: QVQLQESGGGLVQAGGSLRLSCAASGRTFSNYVMAWFRQAPGKEREFVGAITQTGRGTFYADSVEGRFTISRINDKNTVYLQMNSLKPEDTAVYYCSAPRSGRAGTRNQMDYEYWGQGTQVTVSS
notes: as for B1
Regarding B16, the half-maximal effective concentration (EC50) in experiment [1] was 0.059 nM; in experiment [2], 0.074 nM. In experiment [3], this molecule had a Fold change of 1.3 fold.

B17: 17-MP02C09 VHH-hFc, monospecific bivalent (Fc fusion)
chain: QVQLQESGGGLVQAGGSLRLSCVASGSVSSINGMAWYRQGADNQRVLVAAISRVGNTAYGDSVKGRFTISRQNARNTVYLQMNSLKPEDTAVYYCNADSWGGDDYWGQGTQVTVSS
notes: IgG1 Fc LALA-PG; also called anti-IL-2Rβ Ab 17; not shown: human IgG1 CH2 and CH3 domains (Fc)
On to B17, for which the concentration giving a half-maximal response (EC50) in experiment [1] stood at 0.124 nM; in experiment [2] it was 0.184 nM. Moreover, in experiment [3], the Fold change came out at 1.5 fold.

B18: 23-MP06F03 VHH-hFc, monospecific bivalent (Fc fusion)
chain: QVQLVESGGGLVQAGGSLRLSCAVSGDVFVRYTMAWFRQAPGKEREFVASVTDSGRTTDYVHSVKGRFTVSRDNAKNTVYLQMNNLKPEDTAVYYCAANTDYFQIKSLDANTWGQGTQVTVSS
notes: as for B1
As for B18, the EC50 in experiment [1] was determined as 0.125 nM; in experiment [2], 0.157 nM. The Fold change in experiment [3] was 1.3 fold.

B19: 26-MP06A07 VHH-hFc, monospecific bivalent (Fc fusion)
chain: QVQLQESGGGLVQAGGSLRLSCAASGDVFVRYTMAWFRQAPGKEREFVASVTDSGRTTEYVDSVKGRFTVSRDNAKNTAYLQMNNLKPEDTAIYYCAANTDYFQIRSLDLNTWGQGTQVTVSS
notes: as for B1
B19: the concentration giving a half-maximal response (EC50) in experiment [1] was 0.117 nM; in experiment [2], 0.138 nM. In experiment [3], this molecule had a Fold change of 1.2 fold.

Source of the values: patent US20240409645A1 (DUALYX, published 2024).
